Numbering of substitutions follows the chain as printed. Names may count otherwise.
B1: Homo sapiens NudT16 (HsNudT16) (enzyme, human)
chain: MAGARRLELGEALALGSGWRHVCHALLYAPDPGMLFGRIPLRYAILMQMRFDGRLGFPGGFVDTQDRSLEDGLNRELREELGEAAAAFRVERTDYRSSHVGSGPRVVAHFYAKRLTLEELLAVEAGATRAKDHGLEVLGLVRVPLYTLRDGVGGLPTFLENSFIGSAREQLLEALQDLGLLQSGSISGLKIPAHH
notes: carries A22V as in the Mammalian Gene Collection clone BC031215; subcloned in pNIC28-BSA4; Dimer in solution (SEC) and in the crystal; also called wild-type HsNudT16; native HsNudT16; source: E. coli CodonPlus RIPL, purified (Ni-NTA, TEV cleavage, anion exchange, SEC); not shown: His6, N-terminal, cleaved
B2: HsNudT16 F61S (enzyme, human)
chain: B1 chain with F61S
notes: also called F61S mutant; source: E. coli CodonPlus RIPL, purified (Ni-NTA, TEV cleavage, anion exchange, SEC); not shown: His6, N-terminal, cleaved
B3: HsNudT16 H24W (enzyme, human)
chain: B1 chain with H24W
notes: also called H24W mutant; source: E. coli CodonPlus RIPL, purified (Ni-NTA, TEV cleavage, anion exchange, SEC); not shown: His6, N-terminal, cleaved

Biological target: the molecule itself
Experiment: SEC; Superdex 75 10/300; 100 µL of each purified protein loaded at 0.3 mL/min, eluted over one column volume; Bio-Rad size standards; dimer to monomers
For B1, the “stoichiometry N” value was 2. With B2 the “stoichiometry N” value was 2. For B3, the “stoichiometry N” value was 2.
